These results are taken from paper PMC7000712, “A kinetic method for measuring agonist efficacy and ligand bias using high resolution biosensors and a kinetic data analysis framework” (Scientific Reports, 2020).

The subject of assay [1] is β2-adrenoceptor. Description: Arrestin sensor response via the β2-adrenoceptor. Particulars: 10 μM isoproterenol; cells also transduced with GPCR kinase 2; n = 4; Biotek Synergy Mx. The assay is classed as cell-based. The protocol:
(§1) HEK 293 T cells were cultured in Eagle’s minimum essential media (EMEM) supplemented with 10% fetal bovine serum (FBS) and penicillin-streptomycin at 37 °C in 5% CO2. For BacMam transduction, cells were resuspended in media at a density of 52,000 cells per 100 μL. […] For each experiment 4.24 × 10^8 viral genes of arrestin virus were added to each well. For multiplex experiments, 4.79 × 10^8 viral genes of the Red DAG sensor or 6.18 × 10^8. Viral genes of the Red cADDis (cAMP) sensor were added with the arrestin sensor. For experiments with the R-GECO sensor, 8.46 × 10^8 viral genes were added to each well. The viruses carrying the AT1 and V2 receptors were added such that 2.12 × 10^8 and 3.04 × 10^8 viral genes went into each well, respectively. For the β2-adrenoceptor experiment, 4.28 × 10^8 viral genes for the receptor and 2.13 × 10^8 viral genes of GPCR kinase 2 were added to each well. The cell/transduction mixture was then seeded into 96-well plates and incubated for ~24 hours at 37 °C in 5% CO2. Thirty minutes prior to fluorescence plate reader or imaging experiments, the media in each well was replaced with 150 μL of Dulbecco’s phosphate buffered saline (DPBS) supplemented with Ca^2+ (0.9 mM) and Mg^2+ (0.5 mM).
Fluorescence plate reader experiments were performed on the BioTek Synergy Mx (BioTek, Winooski, VT) and BMG CLARIOstar (BMG Labtech, Cary, NC) in 96 well plates.

The subject of assay [2] is parathyroid hormone 1 (PTH1) receptor. The settings on record: endosomal compartment; cited from earlier work. The source says:
The kinetics/dynamics of G-protein-coupled receptor (GPCR) signaling is of increasing interest in elaborating the biology and therapeutic potential of these receptors[1]–[3]. The time frame of GPCR signal transduction is dependent on the signaling pathway, regulation of signaling mechanism, and location of the receptor in the cell (spatiotemporal signaling). Temporal dynamics of signaling are being elucidated and applied to develop new therapeutics. For example, the parathyroid hormone 1 (PTH1) receptor can signal persistently over time after partitioning into the endosomal compartment. Thi ...

For assay [3], the target named is T1, angiotensin AT1 receptor (Homo sapiens, UniProt P30556).
T1 construct: The unmodified receptor can be used, providing estimates of authentic rather than forced coupling to arrestin; host or cells: HEK 293 T cells, BacMam transduction, CMV promoter
T1 sequence (P30556 1-359): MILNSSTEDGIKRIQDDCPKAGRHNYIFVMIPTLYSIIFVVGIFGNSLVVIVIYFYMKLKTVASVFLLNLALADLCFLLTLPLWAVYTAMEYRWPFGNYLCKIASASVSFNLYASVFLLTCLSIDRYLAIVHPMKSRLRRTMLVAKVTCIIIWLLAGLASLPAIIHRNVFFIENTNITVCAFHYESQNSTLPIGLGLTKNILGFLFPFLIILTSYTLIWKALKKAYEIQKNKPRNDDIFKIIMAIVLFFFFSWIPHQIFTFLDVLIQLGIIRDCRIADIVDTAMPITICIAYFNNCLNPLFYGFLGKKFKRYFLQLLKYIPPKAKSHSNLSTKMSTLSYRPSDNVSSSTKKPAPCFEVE
Description: Arrestin-3 (β-arrestin2) mNeonGreen biosensor recruitment, AT1 receptor, HEK 293 T cells (time course). The class given is cell-based.
Excerpt: We and others have developed fluorescent biosensors in which intrinsically fluorescent protein sensors have been incorporated. (Three examples used in this study are R-GECO[22] for Ca^2+, Downward DAG for DAG and cADDis for cAMP[21]). The protein sensors have been engineered to be conformationally-sensitive, such that interaction with the signaling molecule of interest changes the optical properties, enabling the interaction to be detected as a change of fluorescence intensity. Since the proteins are intrinsically fluorescent, no chemical tagging or substrate addition is necessary to generate the optical signal. Here this approach was used to develop a biosensor of receptor-arrestin interaction (Fig. 1a).
We used the kτ method to quantify the kinetics of arrestin recruitment of five AT1 receptor ligands with known varying degrees of arrestin recruitment and bias. The method for quantifying kτ is as follows (illustrated schematically in Supplementary Fig. S5). […] From these fits the fitted parameter values were taken for Plateau and kobs. These values were then multiplied together. […] The data were then fit to the sigmoid curve equation, for example the “log(agonist) vs. response–Variable slope” equation in Prism[46]. From this fit kτ was obtained - it is the value of the asymptote. More precisely, kτ is the Plateau x kobs value for a maximally-effective concentration of ligand.
All that is required is a time course of response measurement at a single, maximally-stimulating concentration of ligand (maximally-stimulating at all time points). […] The data were fit to the association exponential equation to determine Plateau and kobs. kτ was then calculated - it is the Plateau multiplied by kobs for a maximally-stimulating concentration of ligand, as explained in the Appendix.
The first biosensors that positioned analyte binding domains in this position used a circularly permuted version of the fluorescent protein, and include the GCaMP and GECO Ca^2+ sensors, the upward and downward DAG sensors, and the caDDis cAMP sensor[21],[22]. More recently it has become clearer that if the termini of the analyte binding domain are close to one another, then the entire binding domain can be inserted into the 7th stave of the fluorescent protein without having to circularly permute the fluorescent protein[60].
as §1, with “well.” for “well. The cell/transduction mixture was then seeded into 96-well plates and incubated for ~24 hours at 37 °C in 5% CO2. Thirty minutes prior to fluorescence plate reader or imaging experiments, the media in each well was replaced with 150 μL of Dulbecco’s phosphate buffered saline (DPBS) supplemented with Ca^2+ (0.9 mM) and Mg^2+ (0.5 mM).”

Assay [4] addresses T1, angiotensin AT1 receptor. The experiment in a line: Ca^2+ mobilization, R-GECO sensor, AT1 receptor, HEK 293 T cells. The assay is classed as cell-based. Particulars: 32 μM; mean kτ of ligand divided by that for AngII. The source says:
Biased agonism quantification relates the capacity of a ligand to activate one pathway relative to one or more other pathways[9]–[12]. Numerous methods and scales have been developed and successfully applied[8],[47],[53]–[59]. One approach is to compare ligand efficacy, i.e. the capacity of the agonist-occupied receptor to generate the signal. kτ provides such an efficacy value, being the initial rate of signal generation by the agonist-occupied receptor. Here kτ is used to assess signaling bias of the AT1 receptor ligands described above. […] In this study, G-protein signaling and arrestin recruitment was measured using the same fluorescent biosensor assay modality, enabling near-identical conditions to be employed in comparing the pathways. The Gq pathway was quantified at the level of diacylglycerol using the Red Downward DAG sensor[21] (Fig. 5b), and, one step downstream, Ca^2+ mobilization measured using the R-GECO sensor[22] […]
HEK 293 T cells were cultured in Eagle’s minimum essential media (EMEM) supplemented with 10% fetal bovine serum (FBS) and penicillin-streptomycin at 37 °C in 5% CO2. […] Thirty minutes prior to fluorescence plate reader or imaging experiments, the media in each well was replaced with 150 μL of Dulbecco’s phosphate buffered saline (DPBS) supplemented with Ca^2+ (0.9 mM) and Mg^2+ (0.5 mM). […]

Assay [5] concerns the target angiotensin AT1 receptor (UniProt P30556). Description: conformation-sensitive fluorescent arrestin biosensor in live cells; as a6, 32 μM SII.
The target is the same in assay [6]. Description: conformation-sensitive fluorescent arrestin biosensor in live cells; as a6, 32 μM TRV120026.
Assay [7] shares this target. Description: conformation-sensitive fluorescent arrestin biosensor in live cells; as a6, 32 μM TRV120045.
Assay [8] shares this target. Description: conformation-sensitive fluorescent arrestin biosensor in live cells; as a6, 32 μM TRV120055.
Assay [9] shares this target. Description: conformation-sensitive fluorescent arrestin biosensor in live cells; as a1, concentration-response with the agonist SII.
For assay [10] the target is unchanged. The experiment in a line: conformation-sensitive fluorescent arrestin biosensor in live cells; as a1, concentration-response with the agonist TRV026 (TRV120026).
The target is the same in assay [11]. The experiment in a line: conformation-sensitive fluorescent arrestin biosensor in live cells; as a1, concentration-response with the agonist TRV045 (TRV120045).
Assay [12] has the same target. The experiment in a line: conformation-sensitive fluorescent arrestin biosensor in live cells; as a1, concentration-response with the agonist TRV055 (TRV120055).
Assay [13] shares this target. Description: conformation-sensitive fluorescent arrestin biosensor in live cells; HEK 293 T cells with sensor and AT1 receptor; AngII 10 nM-32 μM; time courses fit to the association exponential, Plateau x kobs against concentration fit to a sigmoid, kτ is its top; DPBS with Ca2+ and Mg2+; Biotek Synergy Mx.
Assay [14] has the same target. The experiment in a line: conformation-sensitive fluorescent arrestin biosensor in live cells; HEK 293 T cells with sensor and AT1 receptor; single maximally-stimulating concentration, 32 μM AngII; time course fit to the association exponential, kτ = Plateau x kobs; ΔF/F normalised to baseline; Biotek Synergy Mx (Fig. 5a) or BMG CLARIOstar (Fig. 1b).
For assay [15] the target is unchanged.

On to `CC(C)NCC(O)c1ccc(O)c(O)c1` (stereo not shown) [isoproterenol], for which the “ΔF/F, β2-adrenoceptor” value in assay [1] stood at 0.84.

Take parathyroid hormone [PTH]: the “persistent signaling (in words)” value in assay [2] is reported as “persistent signaling”.

As usually defined, the EC50 is the concentration needed to bring the measured effect to its halfway point. Low values mean an effect from little substance, high ones a need for much substance. Turning to `CC[C@H](C)[C@H](NC(=O)[C@@H]1CCCN1C(=O)[C@H](Cc1c[nH]cn1)NC(=O)[C@@H](NC(=O)[C@@H](NC(=O)[C@@H](NC(=O)[C@H](CCCNC(=N)N)NC(=O)CNC)C(C)C)[C@@H](C)CC)[C@@H](C)CC)C(=O)O` [SII, [sarcosine^1, Ile^4, Ile^8]AngII], the “kτ (% AngII), arrestin (single concentration)” value in [3] (32 μM, mean kτ of ligand divided by that for AngII) worked out at 49 % AngII. Further, in assay [3] (1 min (rise phase), sigmoid fit, representative experiments), the “Emax, 1 minute time point” value was found to be 64 % Ang II. Also, the “Emax, 20 minute time point” value in [3] (20 min (plateau), sigmoid fit, representative experiments) is 88 % Ang II. Besides, the concentration giving a half-maximal response (EC50) in assay [3] (EC50, 1 minute time point, 1 min (rise phase), sigmoid fit, representative experiments) came to 620 nM; in assay [3] (EC50, 20 minute time point, 20 min (plateau), sigmoid fit, representative experiments), 210 nM. In addition, the Kd in [3] (calculated from the mean pKA value, L50 of Plateau × kobs vs concentration curve, read-out: KA) is 1100 nM. In addition, the “kτ (% AngII), arrestin (concentration-response)” value in assay [3] (concentration-response method, mean kτ of ligand divided by that for AngII) came to 48 % AngII. In addition, in assay [3] (concentration-response of the initial rate, repeated from Table 1 in Supplementary Table S2), the “Emax, kinetic model initial rate” value was determined as 48 % Ang II. Also, the “kτ (% AngII), calcium” value in assay [4] was 12 % AngII.

Molecule “arrestin-3 (β-arrestin2) fluorescent biosensor incorporating mNeonGreen (from UniProt P32121 1-409)” gave a kτ (initial rate of arrestin recruitment) with 32 μM SII in [5] of 0.2 NFU.min^-1. This molecule also registered a kτ (initial rate of arrestin recruitment) with 32 μM TRV120026 in [6] of 0.25 NFU.min^-1. The kτ (initial rate of arrestin recruitment) with 32 μM TRV120045 in [7] was 0.38 NFU.min^-1. Moreover, the kτ (initial rate of arrestin recruitment) with 32 μM TRV120055 in assay [8] was determined as 0.37 NFU.min^-1. Further, the kτ (initial rate of arrestin recruitment) with SII in [9] came out at 0.2 NFU.min^-1. In addition, the kτ (initial rate of arrestin recruitment) with TRV026 in [10] was 0.25 NFU.min^-1. This molecule showed a kτ (initial rate of arrestin recruitment) with TRV045 in [11] of 0.36 NFU.min^-1. This molecule also yielded a kτ (initial rate of arrestin recruitment) with TRV055 in assay [12] of 0.38 NFU.min^-1. Besides, the kτ (initial rate of arrestin recruitment) with AngII in assay [13] was 0.41 NFU.min^-1. In assay [14], the kτ (initial rate of arrestin recruitment) with 32 μM AngII came to 0.4 NFU.min^-1, the t1/2 of arrestin recruitment (0.693/kobs) with 32 μM AngII came out at 45 s and the ΔF/F (fluorescence after agonist divided by baseline) with 32 µM AngII was 0.56.

In assay [15], “[sarcosine^1, Ile^4, Ile^8]AngII (peptide)” yielded a KA from the operational model fit of the arrestin sensor concentration-response at the single time point 1 min of 1200 nM and a KA from the operational model fit of the arrestin sensor concentration-response at the single time point 20 min of 530 nM.
